From US20140087995A1 (published 2014)
Numbered stars: 1 amine (or outer) side, 2 acyl side, 3 side chain; on linkers, the order of the positions; unused ones are H or OH. Bridge positions count the residues as written; N and C are the ends. Side chains are listed from the residue outwards. Ends that are not written are not given here. * marks the point of attachment. C20 diacid = O=C(O)CCCCCCCCCCCCCCCCCCC(=O)*; γGlu = O=C(O)[C@H](CCC(=O)[*:2])N[*:1]; C14 diacid = O=C(O)CCCCCCCCCCCCC(=O)*; AEEA = NCCOCCOCC(=O)O

T1: human calcitonin receptor (human, UniProt P30988 25-474)
T1 sequence (looked up): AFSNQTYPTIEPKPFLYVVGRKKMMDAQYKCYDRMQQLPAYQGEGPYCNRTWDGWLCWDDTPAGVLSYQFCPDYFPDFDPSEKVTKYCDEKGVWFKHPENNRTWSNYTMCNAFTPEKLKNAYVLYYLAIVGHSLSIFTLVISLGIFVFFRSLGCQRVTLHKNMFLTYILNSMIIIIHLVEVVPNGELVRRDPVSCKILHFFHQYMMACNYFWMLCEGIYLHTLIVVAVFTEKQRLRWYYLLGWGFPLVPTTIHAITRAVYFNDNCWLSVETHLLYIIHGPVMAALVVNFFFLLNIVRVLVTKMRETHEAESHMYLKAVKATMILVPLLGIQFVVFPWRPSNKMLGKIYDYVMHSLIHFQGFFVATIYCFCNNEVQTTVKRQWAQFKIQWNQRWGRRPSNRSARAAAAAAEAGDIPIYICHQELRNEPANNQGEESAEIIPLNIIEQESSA

T2: human amylin 3(a) receptor (human calcitonin receptor co-expressed with RAMP-3) (human, UniProt P30988 25-474; O60896 24-148, limits assumed)
T2 sequence (looked up) 1: T1 sequence (looked up)
T2 sequence (looked up) 2: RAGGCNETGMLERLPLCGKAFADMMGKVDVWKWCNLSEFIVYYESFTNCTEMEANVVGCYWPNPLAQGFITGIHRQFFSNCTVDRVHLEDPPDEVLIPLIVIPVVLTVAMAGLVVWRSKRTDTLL

B1: N^ε1-[2-[2-[2-[[2-[2-[2-[[(4S)-4-carboxy-4-(19-carboxynonadecanoylamino)butanoyl]amino]ethoxy]ethoxy]acetyl]amino]ethoxy]ethoxy]acetyl]-[Arg17,Pro21,Pro27,Pro31 … (peptide)
peptide: K([AEEA-AEEA-γGlu-C20 diacid])CNTATCATQRLANFLRHSSPNFGAIPSSTPVGSNTY-NH2
modifications: disulfide 2-7; N-terminus assumed
SMILES: CC[C@H](C)[C@H](NC(=O)[C@H](C)NC(=O)CNC(=O)[C@H](Cc1ccccc1)NC(=O)[C@H](CC(N)=O)NC(=O)[C@@H]1CCCN1C(=O)[C@H](CO)NC(=O)[C@H](CO)NC(=O)[C@H](Cc1c[nH]cn1)NC(=O)[C@H](CCCNC(=N)N)NC(=O)[C@H](CC(C)C)NC(=O)[C@H](Cc1ccccc1)NC(=O)[C@H](CC(N)=O)NC(=O)[C@H](C)NC(=O)[C@H](CC(C)C)NC(=O)[C@H](CCCNC(=N)N)NC(=O)[C@H](CCC(N)=O)NC(=O)[C@@H](NC(=O)[C@H](C)NC(=O)[C@@H]1CSSC[C@H](NC(=O)[C@@H](N)CCCCNC(=O)COCCOCCNC(=O)COCCOCCNC(=O)CC[C@H](NC(=O)CCCCCCCCCCCCCCCCCCC(=O)O)C(=O)O)C(=O)N[C@@H](CC(N)=O)C(=O)N[C@@H]([C@@H](C)O)C(=O)N[C@@H](C)C(=O)N[C@@H]([C@@H](C)O)C(=O)N1)[C@@H](C)O)C(=O)N1CCC[C@H]1C(=O)N[C@@H](CO)C(=O)N[C@@H](CO)C(=O)N[C@H](C(=O)N1CCC[C@H]1C(=O)N[C@H](C(=O)NCC(=O)N[C@@H](CO)C(=O)N[C@@H](CC(N)=O)C(=O)N[C@H](C(=O)N[C@@H](Cc1ccc(O)cc1)C(N)=O)[C@@H](C)O)C(C)C)[C@@H](C)O
notes: also called compound 96
B2: N^ε1-[2-[2-[2-[[2-[2-[2-[[(4S)-4-carboxy-4-(19-carboxynonadecanoylamino)butanoyl]amino]ethoxy]ethoxy]acetyl]amino]ethoxy]ethoxy]acetyl]-[Arg17,Pro21,Pro27,Pro34 … (peptide)
peptide: K([AEEA-AEEA-γGlu-C20 diacid])CNTATCATQRLANFLRHSSPNFGAIPSSTNVGPNTY-NH2
modifications: disulfide 2-7; N-terminus assumed
SMILES: CC[C@H](C)[C@H](NC(=O)[C@H](C)NC(=O)CNC(=O)[C@H](Cc1ccccc1)NC(=O)[C@H](CC(N)=O)NC(=O)[C@@H]1CCCN1C(=O)[C@H](CO)NC(=O)[C@H](CO)NC(=O)[C@H](Cc1c[nH]cn1)NC(=O)[C@H](CCCNC(=N)N)NC(=O)[C@H](CC(C)C)NC(=O)[C@H](Cc1ccccc1)NC(=O)[C@H](CC(N)=O)NC(=O)[C@H](C)NC(=O)[C@H](CC(C)C)NC(=O)[C@H](CCCNC(=N)N)NC(=O)[C@H](CCC(N)=O)NC(=O)[C@@H](NC(=O)[C@H](C)NC(=O)[C@@H]1CSSC[C@H](NC(=O)[C@@H](N)CCCCNC(=O)COCCOCCNC(=O)COCCOCCNC(=O)CC[C@H](NC(=O)CCCCCCCCCCCCCCCCCCC(=O)O)C(=O)O)C(=O)N[C@@H](CC(N)=O)C(=O)N[C@@H]([C@@H](C)O)C(=O)N[C@@H](C)C(=O)N[C@@H]([C@@H](C)O)C(=O)N1)[C@@H](C)O)C(=O)N1CCC[C@H]1C(=O)N[C@@H](CO)C(=O)N[C@@H](CO)C(=O)N[C@H](C(=O)N[C@@H](CC(N)=O)C(=O)N[C@H](C(=O)NCC(=O)N1CCC[C@H]1C(=O)N[C@@H](CC(N)=O)C(=O)N[C@H](C(=O)N[C@@H](Cc1ccc(O)cc1)C(N)=O)[C@@H](C)O)C(C)C)[C@@H](C)O
notes: also called compound 98
B3: N^ε1-[(4S)-4-carboxy-4-(13-carboxytridecanoylamino)butanoyl]-[Arg17,Pro21,Pro27,His34]-h-amylin (peptide)
peptide: K([γGlu-C14 diacid])CNTATCATQRLANFLRHSSPNFGAIPSSTNVGHNTY-NH2
modifications: disulfide 2-7; N-terminus assumed
SMILES: CC[C@H](C)[C@H](NC(=O)[C@H](C)NC(=O)CNC(=O)[C@H](Cc1ccccc1)NC(=O)[C@H](CC(N)=O)NC(=O)[C@@H]1CCCN1C(=O)[C@H](CO)NC(=O)[C@H](CO)NC(=O)[C@H](Cc1c[nH]cn1)NC(=O)[C@H](CCCNC(=N)N)NC(=O)[C@H](CC(C)C)NC(=O)[C@H](Cc1ccccc1)NC(=O)[C@H](CC(N)=O)NC(=O)[C@H](C)NC(=O)[C@H](CC(C)C)NC(=O)[C@H](CCCNC(=N)N)NC(=O)[C@H](CCC(N)=O)NC(=O)[C@@H](NC(=O)[C@H](C)NC(=O)[C@@H]1CSSC[C@H](NC(=O)[C@@H](N)CCCCNC(=O)CC[C@H](NC(=O)CCCCCCCCCCCCC(=O)O)C(=O)O)C(=O)N[C@@H](CC(N)=O)C(=O)N[C@@H]([C@@H](C)O)C(=O)N[C@@H](C)C(=O)N[C@@H]([C@@H](C)O)C(=O)N1)[C@@H](C)O)C(=O)N1CCC[C@H]1C(=O)N[C@@H](CO)C(=O)N[C@@H](CO)C(=O)N[C@H](C(=O)N[C@@H](CC(N)=O)C(=O)N[C@H](C(=O)NCC(=O)N[C@@H](Cc1c[nH]cn1)C(=O)N[C@@H](CC(N)=O)C(=O)N[C@H](C(=O)N[C@@H](Cc1ccc(O)cc1)C(N)=O)[C@@H](C)O)C(C)C)[C@@H](C)O
B4: N^ε1-[2-[2-[2-[[(4S)-4-carboxy-4-(19-carboxynonadecanoylamino)butanoyl]amino]ethoxy]ethoxy]acetyl]-[Arg14,Arg17,Pro21,Pro27]-h-amylin (peptide)
peptide: K([AEEA-γGlu-C20 diacid])CNTATCATQRLARFLRHSSPNFGAIPSSTNVGSNTY-NH2
modifications: disulfide 2-7; N-terminus assumed
SMILES: CC[C@H](C)[C@H](NC(=O)[C@H](C)NC(=O)CNC(=O)[C@H](Cc1ccccc1)NC(=O)[C@H](CC(N)=O)NC(=O)[C@@H]1CCCN1C(=O)[C@H](CO)NC(=O)[C@H](CO)NC(=O)[C@H](Cc1c[nH]cn1)NC(=O)[C@H](CCCNC(=N)N)NC(=O)[C@H](CC(C)C)NC(=O)[C@H](Cc1ccccc1)NC(=O)[C@H](CCCNC(=N)N)NC(=O)[C@H](C)NC(=O)[C@H](CC(C)C)NC(=O)[C@H](CCCNC(=N)N)NC(=O)[C@H](CCC(N)=O)NC(=O)[C@@H](NC(=O)[C@H](C)NC(=O)[C@@H]1CSSC[C@H](NC(=O)[C@@H](N)CCCCNC(=O)COCCOCCNC(=O)CC[C@H](NC(=O)CCCCCCCCCCCCCCCCCCC(=O)O)C(=O)O)C(=O)N[C@@H](CC(N)=O)C(=O)N[C@@H]([C@@H](C)O)C(=O)N[C@@H](C)C(=O)N[C@@H]([C@@H](C)O)C(=O)N1)[C@@H](C)O)C(=O)N1CCC[C@H]1C(=O)N[C@@H](CO)C(=O)N[C@@H](CO)C(=O)N[C@H](C(=O)N[C@@H](CC(N)=O)C(=O)N[C@H](C(=O)NCC(=O)N[C@@H](CO)C(=O)N[C@@H](CC(N)=O)C(=O)N[C@H](C(=O)N[C@@H](Cc1ccc(O)cc1)C(N)=O)[C@@H](C)O)C(C)C)[C@@H](C)O
notes: also called compound 82
B5: N^ε1-[2-[2-[2-[[(4S)-4-carboxy-4-(19-carboxynonadecanoylamino)butanoyl]amino]ethoxy]ethoxy]acetyl]-[His14,Arg17,Pro21,Pro27,Arg34]-h-amylin (peptide)
peptide: K([AEEA-γGlu-C20 diacid])CNTATCATQRLAHFLRHSSPNFGAIPSSTNVGRNTY-NH2
modifications: disulfide 2-7; N-terminus assumed
SMILES: CC[C@H](C)[C@H](NC(=O)[C@H](C)NC(=O)CNC(=O)[C@H](Cc1ccccc1)NC(=O)[C@H](CC(N)=O)NC(=O)[C@@H]1CCCN1C(=O)[C@H](CO)NC(=O)[C@H](CO)NC(=O)[C@H](Cc1c[nH]cn1)NC(=O)[C@H](CCCNC(=N)N)NC(=O)[C@H](CC(C)C)NC(=O)[C@H](Cc1ccccc1)NC(=O)[C@H](Cc1c[nH]cn1)NC(=O)[C@H](C)NC(=O)[C@H](CC(C)C)NC(=O)[C@H](CCCNC(=N)N)NC(=O)[C@H](CCC(N)=O)NC(=O)[C@@H](NC(=O)[C@H](C)NC(=O)[C@@H]1CSSC[C@H](NC(=O)[C@@H](N)CCCCNC(=O)COCCOCCNC(=O)CC[C@H](NC(=O)CCCCCCCCCCCCCCCCCCC(=O)O)C(=O)O)C(=O)N[C@@H](CC(N)=O)C(=O)N[C@@H]([C@@H](C)O)C(=O)N[C@@H](C)C(=O)N[C@@H]([C@@H](C)O)C(=O)N1)[C@@H](C)O)C(=O)N1CCC[C@H]1C(=O)N[C@@H](CO)C(=O)N[C@@H](CO)C(=O)N[C@H](C(=O)N[C@@H](CC(N)=O)C(=O)N[C@H](C(=O)NCC(=O)N[C@@H](CCCNC(=N)N)C(=O)N[C@@H](CC(N)=O)C(=O)N[C@H](C(=O)N[C@@H](Cc1ccc(O)cc1)C(N)=O)[C@@H](C)O)C(C)C)[C@@H](C)O
notes: also called compound 84
B6: N^ε1-[2-[2-[2-[[(4S)-4-carboxy-4-(19-carboxynonadecanoylamino)butanoyl]amino]ethoxy]ethoxy]acetyl]-[His14,Arg17,Pro21,Pro27,His34]-h-amylin (peptide)
peptide: K([AEEA-γGlu-C20 diacid])CNTATCATQRLAHFLRHSSPNFGAIPSSTNVGHNTY-NH2
modifications: disulfide 2-7; N-terminus assumed
SMILES: CC[C@H](C)[C@H](NC(=O)[C@H](C)NC(=O)CNC(=O)[C@H](Cc1ccccc1)NC(=O)[C@H](CC(N)=O)NC(=O)[C@@H]1CCCN1C(=O)[C@H](CO)NC(=O)[C@H](CO)NC(=O)[C@H](Cc1c[nH]cn1)NC(=O)[C@H](CCCNC(=N)N)NC(=O)[C@H](CC(C)C)NC(=O)[C@H](Cc1ccccc1)NC(=O)[C@H](Cc1c[nH]cn1)NC(=O)[C@H](C)NC(=O)[C@H](CC(C)C)NC(=O)[C@H](CCCNC(=N)N)NC(=O)[C@H](CCC(N)=O)NC(=O)[C@@H](NC(=O)[C@H](C)NC(=O)[C@@H]1CSSC[C@H](NC(=O)[C@@H](N)CCCCNC(=O)COCCOCCNC(=O)CC[C@H](NC(=O)CCCCCCCCCCCCCCCCCCC(=O)O)C(=O)O)C(=O)N[C@@H](CC(N)=O)C(=O)N[C@@H]([C@@H](C)O)C(=O)N[C@@H](C)C(=O)N[C@@H]([C@@H](C)O)C(=O)N1)[C@@H](C)O)C(=O)N1CCC[C@H]1C(=O)N[C@@H](CO)C(=O)N[C@@H](CO)C(=O)N[C@H](C(=O)N[C@@H](CC(N)=O)C(=O)N[C@H](C(=O)NCC(=O)N[C@@H](Cc1c[nH]cn1)C(=O)N[C@@H](CC(N)=O)C(=O)N[C@H](C(=O)N[C@@H](Cc1ccc(O)cc1)C(N)=O)[C@@H](C)O)C(C)C)[C@@H](C)O
notes: also called compound 80

molecular target: T1, human calcitonin receptor; test: cell-based or functional assay

Row | Ratio hCT/hAmylin funct. | hCTR funct. EC50 | Binder
1 | 21 | 3800 pM | B1
2 | 19.5 | 1630 pM | B2
3 | 38.8 | 1090 pM | B3
4 | 59.2 | 12700 pM | B4
5 | 32.5 | 5490 pM | B5
6 | 15.4 | 2140 pM | B6

molecular target: T2, human amylin 3(a) receptor (human …); test: cell-based or functional assay

Row | hAmylin-R funct. EC50 | Binder
7 | 181 pM | B1
8 | 84 pM | B2
9 | 28 pM | B3
10 | 215 pM | B4
11 | 169 pM | B5
12 | 139 pM | B6
